Test: Stability of TAFIa activity
Design: species or system human
Procedure: Pooled human plasma (30–40 mL) was diluted 10-fold with HBE buffer (10 mM HEPES, pH 7.4, 5 mM ε-aminocaproic acid). 5 mM of the reversible inhibitor ε-aminocaproic acid was added to maintain TAFIa stability during the isolation.
Thrombin, thrombomodulin and calcium chloride (final concentrations 5 nM, 2 nM and 5 mM, respectively) were added and the solution was shaken at room temperature for 30 min. The formation of serum was quenched with 10 μM FPRCK and centrifuged at 20,000×g for 30 min at 4° C. Unless otherwise mentioned, all isolation steps were performed at 4° C. The fibrin-free solution was loaded onto a heparin-sepharose column (2.5×3 cm) pre-equilibrated with HBE buffer.
In the presence of 5 mM ε-aminocaproic acid, TAFIa activity in serum reached a maximum at ˜5 min and was preserved >30 min at 37° C. Initial studies for formation of serum by simply adding thrombin and calcium only activated a limited amount of TAFI zymogen (<<0.5%) as determined with western blotting. Dilution of the plasma for serum preparation increased TAFI activation. A 4–5-fold increase in TAFI activation was observed if the plasma were diluted 10–20-fold. […] A maximal increase (30–35-fold) was obtained with 2 nM thrombomodulin, consistent with the fact that thrombomodulin is the cofactor for thrombin-mediated TAFI activation. […]

B1: TAFIa: activated thrombin-activatable fibrinolysis inhibitor, a basic carboxypeptidase purified from serum (protein)
chain: ASASYYEQYHSLNEIYSWIEFITERHPDMLTKIHIGSSFEKYPLYVLKVSGKEQAAKNAIWIDCGIHAREWISPAFCLWFIGHITQFYGIIGQYTNLLRLVDFYVMPVVNVDGYDYSWKKNRMWRKNRSFYANNHCIGTDLNRNFASKHWCEEGASSSSCSETYCGLYPESEPEVKAVASFLRRNINQIKAYISMHSYSQHIVFPYSYTRSKSKDHEELSLVASEAVRAIEKISKNTRYTHGHGSETLYLAPGGGDDWIYDLGIKYSFTIELRDTGTYGFLLPERYIKPTCREAFAAVSKIAWHVIRNV
time TAFIa activity was maintained (4° C., ε-aminocaproic acid present during isolation): more than 3 days
time TAFIa activity in serum was preserved (37° C., in the presence of 5 mM ε-aminocaproic acid): > 30 min

Source: patent US7176008B2, “Process for producing activated thrombin-activatable fibrinolysis inhibitor” (Merck & Co., Inc., priority 2002, dated 2007)
